Experimental data taken from patent publication US11510992.
One block for each substance: values may come before it.

Experiments:
[1] = biological target: cynomolgus monkey FcγR1/CD64 (cynomolgus monkey)
[2] = biological target: cynomolgus monkey FcγR2A/CD32a (cynomolgus monkey)
[3] = biological target: cynomolgus monkey FcγR2B/CD32b (cynomolgus monkey)
human FcγR1/CD64 (human) = human FcγR1/CD64 (human) (UniProt P12314)
[4] = biological target: human FcγR2A/CD32a (R167) (human) (UniProt P12318)
mouse FcγR1/CD64 (mouse) = mouse FcγR1/CD64 (mouse) (UniProt P26151)
[5] = biological target: mouse FcγR2B/CD32b (mouse) (UniProt P08101)
rat FcγR2B/CD32b (rat) = rat FcγR2B/CD32b (rat) (UniProt Q63203)
rat FcγR3A/CD16a (rat) = rat FcγR3A/CD16a (rat) (UniProt Q6XPU4)
[6] = biological target: cynomolgus monkey FcRn (cynomolgus monkey) (UniProt Q8SPV9); experiment: pH 5.8
human FcRn (human) = human FcRn (human) (UniProt P55899); experiment: pH 5.8
mouse FcRn (mouse) [7] = biological target: mouse FcRn (mouse) (UniProt Q61559); experiment: pH 5.8
rat FcRn (rat) = rat FcRn (rat) (UniProt P13599); experiment: pH 5.8
[8] = biological target: cynomolgus monkey FcRn (cynomolgus monkey) (UniProt Q8SPV9); experiment: pH 7.4
mouse FcRn (mouse) [9] = biological target: mouse FcRn (mouse) (UniProt Q61559); experiment: pH 7.4
[10] = biological target: neuraminidase of influenza A/CA/07/2009 (H1N1)pdm (influenza A virus A/CA/07/2009 (H1N1)pdm); experiment: cell-based or functional assay
[11] = biological target: neuraminidase of influenza A/HK/1/1968 (H3N2) (influenza A virus A/HK/1/1968 (H3N2)) (UniProt Q91MA2); experiment: cell-based or functional assay
[12] = biological target: neuraminidase of influenza B/Malaysia/2506/2004 (Victoria) (influenza B virus B/Malaysia/2506/2004 (Victoria)); experiment: cell-based or functional assay
[13] = biological target: Neuraminidase of influenza A/Hawaii/70/2019 (H1N1pdm09) (influenza A virus A/Hawaii/70/2019 (H1N1pdm09)); experiment: cell-based or functional assay
[14] = biological target: Neuraminidase of influenza A/Hong Kong/2671/2019 (H3N2) (influenza A virus A/Hong Kong/2671/2019 (H3N2)); experiment: cell-based or functional assay
[15] = biological target: Neuraminidase of influenza B/Phuket/3073/2013 (Yamagata) (influenza B virus B/Phuket/3073/2013 (Yamagata)); experiment: cell-based or functional assay
[16] = biological target: Neuraminidase of influenza B/Washington/02/2019 (Victoria) (influenza B virus B/Washington/02/2019 (Victoria)); experiment: cell-based or functional assay

mouse FcγR1/CD64 (mouse), sequence (P26151 25-297 limits assumed): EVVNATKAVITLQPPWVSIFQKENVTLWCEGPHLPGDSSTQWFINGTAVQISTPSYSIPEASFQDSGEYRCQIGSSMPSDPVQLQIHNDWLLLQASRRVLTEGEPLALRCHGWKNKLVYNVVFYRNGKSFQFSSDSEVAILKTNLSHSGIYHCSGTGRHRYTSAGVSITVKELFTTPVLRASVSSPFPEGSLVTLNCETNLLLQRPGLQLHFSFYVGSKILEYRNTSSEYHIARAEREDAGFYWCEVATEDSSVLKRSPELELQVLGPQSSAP
mouse FcγR2B/CD32b (mouse), sequence (P08101 30-210): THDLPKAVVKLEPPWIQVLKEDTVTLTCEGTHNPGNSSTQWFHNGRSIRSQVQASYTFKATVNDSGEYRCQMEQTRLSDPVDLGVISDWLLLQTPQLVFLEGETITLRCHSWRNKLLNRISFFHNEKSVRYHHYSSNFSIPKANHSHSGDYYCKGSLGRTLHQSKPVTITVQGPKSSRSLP
rat FcγR2B/CD32b (rat), sequence (Q63203 32-212): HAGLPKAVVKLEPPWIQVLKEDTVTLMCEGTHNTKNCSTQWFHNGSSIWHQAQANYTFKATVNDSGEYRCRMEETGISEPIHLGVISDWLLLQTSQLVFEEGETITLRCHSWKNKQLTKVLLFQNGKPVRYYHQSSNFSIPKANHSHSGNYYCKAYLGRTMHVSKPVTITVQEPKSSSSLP
rat FcγR3A/CD16a (rat), sequence (Q6XPU4 21-203 limits assumed): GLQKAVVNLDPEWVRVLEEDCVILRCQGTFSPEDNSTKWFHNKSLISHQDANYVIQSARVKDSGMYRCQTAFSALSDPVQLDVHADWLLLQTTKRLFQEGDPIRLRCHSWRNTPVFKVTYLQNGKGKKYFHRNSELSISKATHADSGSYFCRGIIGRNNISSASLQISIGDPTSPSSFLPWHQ
human FcγR2A/CD32a (R167) (human), sequence (P12318 36-218 H167R): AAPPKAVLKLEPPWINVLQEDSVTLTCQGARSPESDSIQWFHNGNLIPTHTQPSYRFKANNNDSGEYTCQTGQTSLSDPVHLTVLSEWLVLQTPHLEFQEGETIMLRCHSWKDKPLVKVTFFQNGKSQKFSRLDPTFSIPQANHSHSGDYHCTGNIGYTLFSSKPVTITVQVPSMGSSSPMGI
human FcγR1/CD64 (human), sequence (P12314 16-288 limits assumed): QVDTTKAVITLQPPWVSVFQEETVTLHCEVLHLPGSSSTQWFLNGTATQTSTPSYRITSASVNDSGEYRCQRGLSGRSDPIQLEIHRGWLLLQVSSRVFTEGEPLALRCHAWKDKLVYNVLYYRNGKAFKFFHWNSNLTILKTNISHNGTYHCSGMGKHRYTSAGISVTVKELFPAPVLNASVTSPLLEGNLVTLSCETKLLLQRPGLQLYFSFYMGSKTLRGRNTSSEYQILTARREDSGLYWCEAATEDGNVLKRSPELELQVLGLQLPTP
rat FcRn (rat), sequence (P13599 23-298 limits assumed, form in doubt, chain 1 of 2): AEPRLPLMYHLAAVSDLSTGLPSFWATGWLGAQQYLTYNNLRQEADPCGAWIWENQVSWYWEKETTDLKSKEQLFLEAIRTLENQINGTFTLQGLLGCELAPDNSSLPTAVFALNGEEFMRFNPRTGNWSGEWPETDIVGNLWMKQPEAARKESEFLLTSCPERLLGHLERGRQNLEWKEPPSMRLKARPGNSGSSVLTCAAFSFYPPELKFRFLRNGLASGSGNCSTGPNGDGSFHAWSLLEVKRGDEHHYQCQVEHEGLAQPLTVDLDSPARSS
rat FcRn (rat), sequence (chain, as listed by the source limits assumed, form in doubt, chain 2 of 2): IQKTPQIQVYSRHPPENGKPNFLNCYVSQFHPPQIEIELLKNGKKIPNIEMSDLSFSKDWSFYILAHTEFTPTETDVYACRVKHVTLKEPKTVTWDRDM

EC50 [1]: 0.37 nM
EC50 [2]: 693 nM
EC50 [3]: 1 nM
EC50 (human FcγR1/CD64 (human)): 7 nM
EC50 [4]: 144 nM
EC50 (mouse FcγR1/CD64 (mouse)): 3 nM
EC50 [5]: 153 nM
EC50 (rat FcγR1/CD64 (rat)): 2 nM
EC50 (rat FcγR2A/CD32a (rat)): 1 nM
EC50 (rat FcγR2B/CD32b (rat)): 208 nM
EC50 (rat FcγR3A/CD16a (rat)): 0.008 nM
EC50 [6]: 28 nM
EC50 (human FcRn (human)): 44 nM
EC50 (mouse FcRn (mouse) [7]): 5 nM
EC50 (rat FcRn (rat)): 13 nM
EC50 [8]: 78 nM
EC50 (mouse FcRn (mouse) [9]): 40 nM
Substance: human IgG1 isotype control antibody

Substance: Fc alone (SEQ ID NO: 73) (from UniProt P0DOX5 203-448)
ADCP (fold induction), reporter cells on MDCK cells, MOI 0 (fold induction) [10]: 0.98
ADCP (fold induction), reporter cells on infected MDCK cells, MOI 0.1 (fold induction) [10]: 1.14
ADCP (fold induction), reporter cells on infected MDCK cells, MOI 0.3 (fold induction) [10]: 1.03
ADCP (fold induction), reporter cells on infected MDCK cells, MOI 1 (fold induction) [10]: 0.99
ADCP (fold induction), reporter cells on infected MDCK cells, MOI 3 (fold induction) [10]: 0.93
ADCP (fold induction), reporter cells on infected MDCK cells, MOI 10 (fold induction) [10]: 1.05
ADCP (fold induction), reporter cells on MDCK cells, MOI 0 (fold induction) [11]: 1.02
ADCP (fold induction), reporter cells on infected MDCK cells, MOI 0.1 (fold induction) [11]: 1.07
ADCP (fold induction), reporter cells on infected MDCK cells, MOI 0.3 (fold induction) [11]: 1.05
ADCP (fold induction), reporter cells on infected MDCK cells, MOI 1 (fold induction) [11]: 1.18
ADCP (fold induction), reporter cells on infected MDCK cells, MOI 3 (fold induction) [11]: 1.01
ADCP (fold induction), reporter cells on infected MDCK cells, MOI 10 (fold induction) [11]: 1.06
ADCP (fold induction), reporter cells on MDCK cells, MOI 0 (fold induction) [12]: 1.07
ADCP (fold induction), reporter cells on infected MDCK cells, MOI 0.1 (fold induction) [12]: 0.98
ADCP (fold induction), reporter cells on infected MDCK cells, MOI 0.3 (fold induction) [12]: 0.99
ADCP (fold induction), reporter cells on infected MDCK cells, MOI 1 (fold induction) [12]: 1.14
ADCP (fold induction), reporter cells on infected MDCK cells, MOI 3 (fold induction) [12]: 1.11
ADCP (fold induction), reporter cells on infected MDCK cells, MOI 10 (fold induction) [12]: 1

Substance: hIgG1 Fc (from UniProt P01857 84-329)
IC50, enzyme-linked lectin assay (ELLA), fetuin substrate, live virus [13]: > 1000 nM
IC50, enzyme-linked lectin assay (ELLA), fetuin substrate, live virus [14]: > 1000 nM
IC50, enzyme-linked lectin assay (ELLA), fetuin substrate, live virus [15]: > 1000 nM
IC50, enzyme-linked lectin assay (ELLA), fetuin substrate, live virus [16]: > 1000 nM
